The text below walks through data of patent WO1992001059A1.

Assay [1] has as its target carcinoembryonic antigen (CEA) (UniProt P06731). Nature of the assay: competition RIA on CEA coated beads, transfected CHO cell supernatant.
Assay [2] shares this target. Nature of the assay: competition RIA, 125I-labelled A5B7 IgG1 on CEA coated beads, purified material.
The target is the same in assay [3]. Nature of the assay: competition RIA on CEA coated beads, transfected CHO cell supernatant; apparent A5B7 concentration divided by assembly assay result.
Assay [4] has the same target. As to the kind of experiment: competition RIA on CEA coated beads.

Sequence of carcinoembryonic antigen (CEA) (P06731 35-685 limits assumed): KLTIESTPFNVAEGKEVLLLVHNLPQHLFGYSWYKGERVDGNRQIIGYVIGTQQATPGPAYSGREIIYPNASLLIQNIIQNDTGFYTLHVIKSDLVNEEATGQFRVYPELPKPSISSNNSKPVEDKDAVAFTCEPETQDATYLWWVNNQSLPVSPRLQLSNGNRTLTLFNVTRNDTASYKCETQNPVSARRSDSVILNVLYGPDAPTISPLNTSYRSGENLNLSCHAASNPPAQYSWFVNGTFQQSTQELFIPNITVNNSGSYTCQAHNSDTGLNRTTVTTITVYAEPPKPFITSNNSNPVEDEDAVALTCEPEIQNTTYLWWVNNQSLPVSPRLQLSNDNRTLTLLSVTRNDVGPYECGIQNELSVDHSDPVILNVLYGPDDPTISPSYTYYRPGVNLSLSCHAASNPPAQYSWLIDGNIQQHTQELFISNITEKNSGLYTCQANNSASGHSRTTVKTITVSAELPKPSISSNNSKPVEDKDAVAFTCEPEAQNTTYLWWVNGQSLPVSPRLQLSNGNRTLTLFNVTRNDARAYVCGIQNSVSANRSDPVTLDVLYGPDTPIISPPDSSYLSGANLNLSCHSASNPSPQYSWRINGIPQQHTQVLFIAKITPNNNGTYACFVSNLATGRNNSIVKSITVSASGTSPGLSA

For chimeric A5B7 IgG1 whole antibody, the % Relative Potency in assay [1] and in assay [2] was 100% throughout. Further, the Specific activity in assay [3] was determined as 1.17.
Regarding murine A5B7 F(ab')2, the % Relative Potency in assay [2] was 97%.
With murine A5B7 Fab' (alkylated), the fold reduced potency against murine A5B7 IgG in assay [4] is 10 fold. The substance further returned a % Relative Potency in assay [2] of 8%.
